No end group written: not given here.
Experiments:
[1] = molecular target: full-length ZO1 with C-terminal mEGFP (UniProt Q07157 1-1748); assay: client partitioning into phase-separated droplets
[2] = molecular target: the molecule itself; assay: FCS molecular brightness

full-length ZO1 with C-terminal mEGFP, sequence (Q07157 whole entry): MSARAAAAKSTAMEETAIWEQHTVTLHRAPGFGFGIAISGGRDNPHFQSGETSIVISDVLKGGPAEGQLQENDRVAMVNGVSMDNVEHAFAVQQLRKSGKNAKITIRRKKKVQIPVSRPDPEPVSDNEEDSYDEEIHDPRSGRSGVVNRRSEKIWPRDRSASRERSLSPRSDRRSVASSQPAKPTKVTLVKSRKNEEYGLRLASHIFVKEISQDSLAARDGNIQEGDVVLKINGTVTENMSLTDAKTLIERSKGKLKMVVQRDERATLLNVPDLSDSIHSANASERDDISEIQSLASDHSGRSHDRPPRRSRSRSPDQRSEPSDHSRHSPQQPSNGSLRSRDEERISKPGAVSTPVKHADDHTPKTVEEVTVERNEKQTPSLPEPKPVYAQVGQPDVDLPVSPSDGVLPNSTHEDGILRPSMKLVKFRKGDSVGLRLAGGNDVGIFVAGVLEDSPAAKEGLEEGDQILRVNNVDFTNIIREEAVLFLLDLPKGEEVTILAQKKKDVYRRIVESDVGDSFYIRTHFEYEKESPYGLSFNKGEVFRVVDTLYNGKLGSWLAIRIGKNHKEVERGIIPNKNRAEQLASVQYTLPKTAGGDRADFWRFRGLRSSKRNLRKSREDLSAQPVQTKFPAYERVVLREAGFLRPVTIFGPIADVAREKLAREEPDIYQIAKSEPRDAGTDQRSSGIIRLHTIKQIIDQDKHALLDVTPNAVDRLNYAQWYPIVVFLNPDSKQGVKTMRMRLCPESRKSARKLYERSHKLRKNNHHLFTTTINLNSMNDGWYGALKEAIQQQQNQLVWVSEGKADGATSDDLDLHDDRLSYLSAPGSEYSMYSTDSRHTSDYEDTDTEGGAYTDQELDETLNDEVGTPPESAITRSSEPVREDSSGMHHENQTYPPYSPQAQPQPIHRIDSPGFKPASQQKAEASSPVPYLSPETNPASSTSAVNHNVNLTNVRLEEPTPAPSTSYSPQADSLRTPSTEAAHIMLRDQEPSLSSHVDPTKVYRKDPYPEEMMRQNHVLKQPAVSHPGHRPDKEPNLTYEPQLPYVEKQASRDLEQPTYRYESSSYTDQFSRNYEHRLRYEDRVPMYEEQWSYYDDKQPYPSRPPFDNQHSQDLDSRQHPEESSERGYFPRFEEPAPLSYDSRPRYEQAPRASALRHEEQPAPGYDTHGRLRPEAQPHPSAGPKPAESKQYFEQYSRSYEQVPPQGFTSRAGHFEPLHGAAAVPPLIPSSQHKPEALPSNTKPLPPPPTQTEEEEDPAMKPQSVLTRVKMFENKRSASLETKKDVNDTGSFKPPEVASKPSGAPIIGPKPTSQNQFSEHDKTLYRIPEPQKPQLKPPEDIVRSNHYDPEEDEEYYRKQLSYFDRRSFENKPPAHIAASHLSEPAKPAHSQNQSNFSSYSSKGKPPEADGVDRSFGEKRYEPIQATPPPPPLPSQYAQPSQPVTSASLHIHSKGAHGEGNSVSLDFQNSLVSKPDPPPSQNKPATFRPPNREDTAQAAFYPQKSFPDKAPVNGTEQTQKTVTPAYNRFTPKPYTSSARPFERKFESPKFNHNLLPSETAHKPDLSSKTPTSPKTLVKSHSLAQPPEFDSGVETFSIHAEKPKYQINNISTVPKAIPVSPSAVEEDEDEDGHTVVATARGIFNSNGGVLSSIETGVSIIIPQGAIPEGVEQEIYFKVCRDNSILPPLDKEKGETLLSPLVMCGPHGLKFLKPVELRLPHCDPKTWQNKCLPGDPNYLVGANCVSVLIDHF

SCPRKTTSYPTPRPYPKPAPSSGKDYV (also: CoA-DY647 on YBBR-tag, labelled with PPTase Sfp, tag not in given chain) [C-terminal tail of claudin-1] was tested, and the “partitioning (client fluorescence inside/outside ZO1 droplets)” value [1] was 44 fold.

B1: afadin (natural protein, UniProt P55196 1-1824, looked up)
chain: MSAGGRDEERRKLADIIHHWNANRLDLFEISQPTEDLEFHGVMRFYFQDKAAGNFATKCIRVSSTATTQDVIETLAEKFRPDMRMLSSPKYSLYEVHVSGERRLDIDEKPLVVQLNWNKDDREGRFVLKNENDAIPPKKAQSNGPEKQEKEGVIQNFKRTLSKKEKKEKKKREKEALRQASDKDDRPFQGEDVENSRLAAEVYKDMPETSFTRTISNPEVVMKRRRQQKLEKRMQEFRSSDGRPDSGGTLRIYADSLKPNIPYKTILLSTTDPADFAVAEALEKYGLEKENPKDYCIARVMLPPGAQHSDEKGAKEIILDDDECPLQIFREWPSDKGILVFQLKRRPPDHIPKKTKKHLEGKTPKGKERADGSGYGSTLPPEKLPYLVELSPGRRNHFAYYNYHTYEDGSDSRDKPKLYRLQLSVTEVGTEKLDDNSIQLFGPGIQPHHCDLTNMDGVVTVTPRSMDAETYVEGQRISETTMLQSGMKVQFGASHVFKFVDPSQDHALAKRSVDGGLMVKGPRHKPGIVQETTFDLGGDIHSGTALPTSKSTTRLDSDRVSSASSTAERGMVKPMIRVEQQPDYRRQESRTQDASGPELILPASIEFRESSEDSFLSAIINYTNSSTVHFKLSPTYVLYMACRYVLSNQYRPDISPTERTHKVIAVVNKMVSMMEGVIQKQKNIAGALAFWMANASELLNFIKQDRDLSRITLDAQDVLAHLVQMAFKYLVHCLQSELNNYMPAFLDDPEENSLQRPKIDDVLHTLTGAMSLLRRCRVNAALTIQLFSQLFHFINMWLFNRLVTDPDSGLCSHYWGAIIRQQLGHIEAWAEKQGLELAADCHLSRIVQATTLLTMDKYAPDDIPNINSTCFKLNSLQLQALLQNYHCAPDEPFIPTDLIENVVTVAENTADELARSDGREVQLEEDPDLQLPFLLPEDGYSCDVVRNIPNGLQEFLDPLCQRGFCRLIPHTRSPGTWTIYFEGADYESHLLRENTELAQPLRKEPEIITVTLKKQNGMGLSIVAAKGAGQDKLGIYVKSVVKGGAADVDGRLAAGDQLLSVDGRSLVGLSQERAAELMTRTSSVVTLEVAKQGAIYHGLATLLNQPSPMMQRISDRRGSGKPRPKSEGFELYNNSTQNGSPESPQLPWAEYSEPKKLPGDDRLMKNRADHRSSPNVANQPPSPGGKSAYASGTTAKITSVSTGNLCTEEQTPPPRPEAYPIPTQTYTREYFTFPASKSQDRMAPPQNQWPNYEEKPHMHTDSNHSSIAIQRVTRSQEELREDKAYQLERHRIEAAMDRKSDSDMWINQSSSLDSSTSSQEHLNHSSKSVTPASTLTKSGPGRWKTPAAIPATPVAVSQPIRTDLPPPPPPPPVHYAGDFDGMSMDLPLPPPPSANQIGLPSAQVAAAERRKREEHQRWYEKEKARLEEERERKRREQERKLGQMRTQSLNPAPFSPLTAQQMKPEKPSTLQRPQETVIRELQPQQQPRTIERRDLQYITVSKEELSSGDSLSPDPWKRDAKEKLEKQQQMHIVDMLSKEIQELQSKPDRSAEESDRLRKLMLEWQFQKRLQESKQKDEDDEEEEDDDVDTMLIMQRLEAERRARLQDEERRRQQQLEEMRKREAEDRARQEEERRRQEEERTKRDAEEKRRQEEGYYSRLEAERRRQHDEAARRLLEPEAPGLCRPPLPRDYEPPSPSPAPGAPPPPPQRNASYLKTQVLSPDSLFTAKFVAYNEEEEEEDCSLAGPNSYPGSTGAAVGAHDACRDAKEKRSKSQDADSPGSSGAPENLTFKERQRLFSQGQDVSNKVKASRKLTELENELNTK
B1 was tested, and the “partitioning (client fluorescence inside/outside ZO1 droplets)” value [1] was 28 fold.

B2: endogenous ZO2 with N-terminal mNeonGreen (CRISPR knock-in, MDCK-II) (natural protein, dog (endogenous in MDCK-II), UniProt Q95168 1-1174, looked up)
chain: MEELIWEQYTVTLQKDSKRGFGIAVSGGRDNPHFENGETSIVISDVLPGGPADGLLQENDRVVMVNGTPMEDVLHSFAVQQLRKSGKIAAIVVKRPRKVQLAPPQGSLPVDEDDRAFEVMDEFDGRSARSGYSERSRRSSHGGRSRSWEDSPERGRPHERAWSQERERSRGRSLERGLDHDDDYRRPRERSRGRSLERGLDHDDDYGRPGERSHGMSTDRGYDRGYDRGYDRGYDRTYSPEAEYGRRTQPDARHAGSRSRSREHLRSRSPSPELRGRPDHAGQPDSDRPIGVLLMKSKANEEYGLRLGSQIFIKQMTRTALATKDGNLHEGDIILKINGTVTENMSLTDARKLIEKSRGKLQLVVLRDSKQTLINIPSLNDSDSEIEDISEIESNRSFSPEERRQQYSDYDYHSSNEKLKERPNSREDMQNRWSRMGATPTPFKSMGDIASVVGTENSKEPRYQEEPPAPQPKAAPRTFLRPSPEDEAIYGPNTKMVRFKKGDSVGLRLAGGNDVGIFVAGIQEGTSAEQEGLQEGDQILKVNTQDFRGLVREDAVLYLLEIPKGEMVTILAQSRADVYRDILACGRGDSFFIRSHFECEKETPQSLAFSRGEVFRVVDTLYDGKLGHWLAVRIGNELEKGLIPNKSRAEQMASVQNAQRDNAGDRADFWRMRGQRSGMKKNLRKSREDLTAAVSVSTKFPAYERVLLREAGFKRPVVLFGPIADIALEKLANELPDLFQTAKTEPKDAGSEKSSGVVRLNTVRQIIEQDKHALLDVTPKAVDLLNYTQWFPIVIFFNPDSRQGVKTMRQRLNPTSNKSSRKLYDQANKLKKTCAHLFTATINLNSANDSWFGSLKDTIQHQQGEAVWVSEGKMEGMDDDPEDRMSYLTAMGADYLSCDSRLISDFEDTDGEGGAYTDNELDEPAEEPLVSSITRSSEPVQHEESIRKPSPEPRAQMRRAASRDQLRDSSPPPAFKPEPPKAKTQNREESFDISRSHDYKSNPSAVAGNEVSGASTRSCPPPIAAKPSFGRSILKPSTPVPSPESEEVGEGSEEQEGAPKSVLGKVKIFEKMDHKARLQRMQELQEAQNARIEIAQKHPDIYAVPIKTHKPDPGLSQHTSSRPPEPQKGPSRLYQDPRGSYGSDAEEEEYRQQLSEHSKRGYYSQPSRYRDTEL
In the case of B2, the “stoichiometry N” value [2] is reported as 1.5.

B3: cingulin (natural protein, UniProt Q9P2M7 1-1203, looked up)
chain: MEQAPNMAEPRGPVDHGVQIRFITEPVSGAEMGTLRRGGRRPAKDARASTYGVAVRVQGIAGQPFVVLNSGEKGGDSFGVQIKGANDQGASGALSSDLELPENPYSQVKGFPAPSQSSTSDEEPGAYWNGKLLRSHSQASLAGPGPVDPSNRSNSMLELAPKVASPGSTIDTAPLSSVDSLINKFDSQLGGQARGRTGRRTRMLPPEQRKRSKSLDSRLPRDTFEERERQSTNHWTSSTKYDNHVGTSKQPAQSQNLSPLSGFSRSRQTQDWVLQSFEEPRRSAQDPTMLQFKSTPDLLRDQQEAAPPGSVDHMKATIYGILREGSSESETSVRRKVSLVLEKMQPLVMVSSGSTKAVAGQGELTRKVEELQRKLDEEVKKRQKLEPSQVGLERQLEEKTEECSRLQELLERRKGEAQQSNKELQNMKRLLDQGEDLRHGLETQVMELQNKLKHVQGPEPAKEVLLKDLLETRELLEEVLEGKQRVEEQLRLRERELTALKGALKEEVASRDQEVEHVRQQYQRDTEQLRRSMQDATQDHAVLEAERQKMSALVRGLQRELEETSEETGHWQSMFQKNKEDLRATKQELLQLRMEKEEMEEELGEKIEVLQRELEQARASAGDTRQVEVLKKELLRTQEELKELQAERQSQEVAGRHRDRELEKQLAVLRVEADRGRELEEQNLQLQKTLQQLRQDCEEASKAKMVAEAEATVLGQRRAAVETTLRETQEENDEFRRRILGLEQQLKETRGLVDGGEAVEARLRDKLQRLEAEKQQLEEALNASQEEEGSLAAAKRALEARLEEAQRGLARLGQEQQTLNRALEEEGKQREVLRRGKAELEEQKRLLDRTVDRLNKELEKIGEDSKQALQQLQAQLEDYKEKARREVADAQRQAKDWASEAEKTSGGLSRLQDEIQRLRQALQASQAERDTARLDKELLAQRLQGLEQEAENKKRSQDDRARQLKGLEEKVSRLETELDEEKNTVELLTDRVNRGRDQVDQLRTELMQERSARQDLECDKISLERQNKDLKTRLASSEGFQKPSASLSQLESQNQLLQERLQAEEREKTVLQSTNRKLERKVKELSIQIEDERQHVNDQKDQLSLRVKALKRQVDEAEEEIERLDGLRKKAQREVEEQHEVNEQLQARIKSLEKDSWRKASRSAAESALKNEGLSSDEEFDSVYDPSSIASLLTESNLQTSSC
In the case of B3, the “partitioning (client fluorescence inside/outside ZO1 droplets)” value [1] is reported as 25 fold.

B4: transcription factor ZONAB (natural protein)
chain: not shown
In the case of B4, the “partitioning (client fluorescence inside/outside ZO1 droplets)” value [1] is reported as 20 fold.

From doi:10.1101/589580 (bioRxiv, 2019)
